# Earlier results as cited in PMC6389863.
# Key:
# [1] = biological target: Cys87 (UniProt position 87, RLGRICLDVLK)
# [2] = biological target: Asp26 (UniProt position 26, KLVVVDFSATW); details: reduced (active-site dithiol) thioredoxin
# [3] = biological target: Asp76 (UniProt position 102, GSPGADRVVFN)
# [4] = biological target: His18 (UniProt position 19, KCAQCHTVEKG)
# [5] = biological target: Tyr149 (UniProt position 149, TPQSPYGKSKL)
# [6] = biological target: Asp102 (UniProt position 102, LTINNDITLLK)
# [7] = biological target: Asp70 (UniProt position 70, KLFNQDVDAAV)
# [8] = biological target: His72 (UniProt position 73, GINTAHKARQV)
# [9] = biological target: Lys39 (UniProt position 39, EFPGGKIEMGE)
# [10] = system: Tyr31
# [11] = biological target: Glu73 (UniProt position 120, GRTWREADINY)
# [12] = biological target: Cys25 (UniProt position 158, GSCGSCWAFSA)
# [13] = system: Lys55
# [14] = biological target: Cys25 (UniProt position 157, GSCGSCWAFSA)
# [15] = biological target: His149 (UniProt position 177, ITFTNHVNAWK)
substance,measurement,setting,value
"Ubiquitin-conjugating enzyme Ubc13 (not stated (PDB 1JBB is Saccharomyces cerevisiae Ubc13, inferred))",pKa,[1],11.1
"Thioredoxin (human, reduced) (Homo sapiens)",pKa,[2],9.9
Ribonuclease T1 (RNase T1) (not stated (inferred Aspergillus oryzae)),pKa,[3],0.5
Cytochrome c (horse) (Equus caballus),pKa,[4],2.5
UDP-galactose 4-epimerase (Escherichia coli),pKa,[5],6.08
Chymotrypsinogen A (bovine) (Bos taurus),pKa,[6],1.36
T4 lysozyme (Enterobacteria phage T4 (inferred)),pKa,[7],0.5
Bovine heart phosphotyrosyl phosphatase (low molecular weight PTP) (Bos taurus),pKa,[8],9.19
MutT enzyme (not stated (inferred Escherichia coli)),pKa,[9],8.4
"Ovomucoid third domain, silver pheasant (OMSVP3) (Lophura nycthemera (silver pheasant))",pKa,[10],12.5
Barnase (not stated (inferred Bacillus amyloliquefaciens)),pKa,[11],2.1
Papain (Carica papaya (inferred)),pKa,[12],3.32
Calbindin D9k (bovine) (Bos taurus),pKa,[13],12.12
Papaya protease (PDB 1PPO; caricain / papaya protease omega) (Carica papaya (inferred)),pKa,[14],2.88
Xylanase (Bacillus circulans xylanase) (Bacillus circulans (from the title of ref 20)),pKa,[15],<2.3
